Results taken from US20220289841A1 (CHILDREN S HOSPITAL OF PHILADELPHIA, published 2022).

Biological target: T1, full-length CD22 (UniProt P20273 20-847, limits assumed)
T1 construct: Re-expressed in OCI-Ly10 cells whose endogenous CD22 was deleted by CRISPR; also called CD22 full length (FL); CD22-full length
T1 sequence (looked up): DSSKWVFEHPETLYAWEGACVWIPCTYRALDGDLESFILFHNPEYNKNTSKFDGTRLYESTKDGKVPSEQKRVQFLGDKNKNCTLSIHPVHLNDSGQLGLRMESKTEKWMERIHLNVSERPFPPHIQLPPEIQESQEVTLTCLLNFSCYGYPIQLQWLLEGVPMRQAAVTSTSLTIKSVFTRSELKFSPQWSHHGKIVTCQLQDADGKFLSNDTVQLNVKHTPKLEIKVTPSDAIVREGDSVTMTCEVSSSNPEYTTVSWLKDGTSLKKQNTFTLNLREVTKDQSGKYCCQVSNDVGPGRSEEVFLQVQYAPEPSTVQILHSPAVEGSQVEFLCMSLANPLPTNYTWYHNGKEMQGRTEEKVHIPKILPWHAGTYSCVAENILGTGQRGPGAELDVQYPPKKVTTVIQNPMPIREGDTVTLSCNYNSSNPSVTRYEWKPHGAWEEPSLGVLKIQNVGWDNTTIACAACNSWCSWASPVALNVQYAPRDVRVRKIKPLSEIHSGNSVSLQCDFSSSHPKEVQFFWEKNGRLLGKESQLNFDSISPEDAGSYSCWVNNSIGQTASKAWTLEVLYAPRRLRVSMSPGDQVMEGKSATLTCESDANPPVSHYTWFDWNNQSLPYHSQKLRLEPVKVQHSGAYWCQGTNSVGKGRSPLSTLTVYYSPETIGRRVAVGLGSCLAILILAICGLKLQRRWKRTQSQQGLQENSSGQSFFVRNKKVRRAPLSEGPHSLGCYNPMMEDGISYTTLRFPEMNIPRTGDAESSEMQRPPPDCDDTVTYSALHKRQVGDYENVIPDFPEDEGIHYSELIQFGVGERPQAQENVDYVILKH
Experiment: OCI-Ly10 cells with endogenous CD22 deleted by CRISPR, reconstituted with full-length CD22; Western blot (FIG. 5B)
Source text: One top event was the increased skipping of exon 5-6 (Δex5-6) in CD22 in B-ALL. The inventors validated the RNA expression of this event in 18 out of 18 primary B-ALL samples with RT-PCR. And using Nanopore-based long read RNA sequencing, they confirmed the Δex5-6 event exists within a larger translatable transcript in B-ALL cell lines and B-ALL patient-derived xenografts (PDX). BALB/C mice were then immunized against a peptide containing the junction site of exon 4 and 7 to generate hybridomas and obtain a monoclonal antibody (mAb) against CD22 Δex5-6. To validate the specificity of the identified mAb, the inventors used CRISPR to delete endogenous CD22 in OCI-Ly10 cells and reconstituted the cells with either CD22 Δex5-6 or full length CD22. […] The inventors also validated that this mAb specifically binds to endogenously expressed CD22 Δex5-6 in multiple B-ALL cell lines and B-ALL patient-derived xenografts (PDX) by immunoprecipitation and Western blot analysis. In next steps, the inventors plan to develop antibody-drug conjugates and chimeric antigen receptors from our mAb for further therapeutic testing.

binding result: no binding
B1: Clone 11F11 monoclonal antibody against CD22 Δex5-6 (antibody, V domains shown)
VH: RVQLQQPGADLVRPGASVKLSCKASGYTFTSYWMSWVKQRPGQGLEWIGMIDPSDSEAHYNQMFRDKATLTVDNSSSTAYMVLSSLTSEDSAVYYCSNDFDYWGQGTTLTVSS
VL: not shown
notes: Mouse hybridoma antibody, from BALB/C mice immunized with a peptide containing the exon 4/exon 7 junction; No isotype is stated for the clone; also called the mAb; CD22 Δex5-6 antibody
